Results as given in publication doi:10.1101/2020.05.04.070177, “Mechanistic insights into RNA binding and RNA-regulated RIG-I ubiquitination by TRIM25” (bioRxiv, 2020).

Experiments:
[1] = target: the molecule itself; assay: NMR titration; CC-PRY/SPRY with pre-let-7 RNA added; domain-domain interaction within the construct; 1H,15N-HSQC
TRIM25 PRY/SPRY [2] = target: T1, TRIM25 PRY/SPRY (UniProt Q14258 439-630); assay: ITC; ITC and filter binding: 20 mM MES pH 6.5, 75 mM NaCl, 0.5 mM TCEP (ITC 20 C, filter binding on ice); NMR: 20 mM Na phosphate pH 6.5, 150 mM NaCl, 2 mM TCEP, 293 K; conditions: protein: recombinant; tags: His-Trx (removed); single strand
TRIM25 CC-PRY/SPRY [3] = target: T2, TRIM25 CC-PRY/SPRY (UniProt Q14258 189-630); assay: as above; conditions: protein: recombinant; tags: His-Trx (removed); chain copies: 2; single strand
TRIM25 CC-PRY/SPRY [4] = target: T2, TRIM25 CC-PRY/SPRY; assay: ITC; second fitted site, N 0.08; ITC and filter binding: 20 mM MES pH 6.5, 75 mM NaCl, 0.5 mM TCEP (ITC 20 C, filter binding on ice); NMR: 20 mM Na phosphate pH 6.5, 150 mM NaCl, 2 mM TCEP, 293 K; conditions: protein: recombinant; tags: His-Trx (removed); chain copies: 2; hairpin
TRIM25 CC-PRY/SPRY [5] = target: T2, TRIM25 CC-PRY/SPRY; assay: ITC; first of two fitted sites (second 106 nM); ITC and filter binding: 20 mM MES pH 6.5, 75 mM NaCl, 0.5 mM TCEP (ITC 20 C, filter binding on ice); NMR: 20 mM Na phosphate pH 6.5, 150 mM NaCl, 2 mM TCEP, 293 K; conditions: protein: recombinant; tags: His-Trx (removed); chain copies: 2; hairpin
[6] = target: T3, TRIM25 CC-PRY/SPRY penta-mutant (UniProt Q14258 189-630, K283A;K285A;H505E;K508E;K602E); assay: ITC; ITC and filter binding: 20 mM MES pH 6.5, 75 mM NaCl, 0.5 mM TCEP (ITC 20 C, filter binding on ice); NMR: 20 mM Na phosphate pH 6.5, 150 mM NaCl, 2 mM TCEP, 293 K; conditions: protein: recombinant; tags: His-Trx (removed); chain copies: 2; hairpin
Target sequence in this assay (Q14258 189-630 K283A/K285A/H505E/K508E/K602E): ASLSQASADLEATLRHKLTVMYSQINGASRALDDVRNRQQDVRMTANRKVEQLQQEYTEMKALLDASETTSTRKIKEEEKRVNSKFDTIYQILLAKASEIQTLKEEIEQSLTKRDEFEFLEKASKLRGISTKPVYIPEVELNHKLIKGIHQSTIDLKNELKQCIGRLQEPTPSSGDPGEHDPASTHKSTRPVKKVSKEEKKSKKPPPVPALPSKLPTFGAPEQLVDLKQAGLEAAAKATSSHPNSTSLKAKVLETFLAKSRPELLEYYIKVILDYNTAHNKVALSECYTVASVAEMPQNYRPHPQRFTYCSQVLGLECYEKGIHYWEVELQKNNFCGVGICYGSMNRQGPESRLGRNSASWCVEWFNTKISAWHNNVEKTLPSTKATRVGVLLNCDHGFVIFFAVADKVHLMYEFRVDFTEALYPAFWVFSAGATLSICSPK

TRIM25 CC-PRY/SPRY [7] = target: T2, TRIM25 CC-PRY/SPRY; assay: filter binding; ITC and filter binding: 20 mM MES pH 6.5, 75 mM NaCl, 0.5 mM TCEP (ITC 20 C, filter binding on ice); NMR: 20 mM Na phosphate pH 6.5, 150 mM NaCl, 2 mM TCEP, 293 K; conditions: protein: recombinant, tags: His-Trx (removed), chain copies: 2, hairpin
TRIM25 CC-PRY/SPRY [8] = target: T2, TRIM25 CC-PRY/SPRY; assay: ITC; first of two fitted sites; ITC and filter binding: 20 mM MES pH 6.5, 75 mM NaCl, 0.5 mM TCEP (ITC 20 C, filter binding on ice); NMR: 20 mM Na phosphate pH 6.5, 150 mM NaCl, 2 mM TCEP, 293 K; conditions: protein: recombinant; tags: His-Trx (removed); chain copies: 2; hairpin
[9] = target: T3, TRIM25 CC-PRY/SPRY penta-mutant; assay: ITC; no binding detected; ITC and filter binding: 20 mM MES pH 6.5, 75 mM NaCl, 0.5 mM TCEP (ITC 20 C, filter binding on ice); NMR: 20 mM Na phosphate pH 6.5, 150 mM NaCl, 2 mM TCEP, 293 K; conditions: protein: recombinant; tags: His-Trx (removed); chain copies: 2; hairpin
TRIM25 CC-PRY/SPRY [10] = target: T2, TRIM25 CC-PRY/SPRY; assay: ITC; second fitted site, N 0.10; ITC and filter binding: 20 mM MES pH 6.5, 75 mM NaCl, 0.5 mM TCEP (ITC 20 C, filter binding on ice); NMR: 20 mM Na phosphate pH 6.5, 150 mM NaCl, 2 mM TCEP, 293 K; conditions: protein: recombinant; tags: His-Trx (removed); chain copies: 2; hairpin
TRIM25 PRY/SPRY [11] = target: T1, TRIM25 PRY/SPRY; assay: NMR; CSPs at site 2 only; ITC and filter binding: 20 mM MES pH 6.5, 75 mM NaCl, 0.5 mM TCEP (ITC 20 C, filter binding on ice); NMR: 20 mM Na phosphate pH 6.5, 150 mM NaCl, 2 mM TCEP, 293 K; conditions: protein: recombinant; tags: His-Trx (removed); chain copies: 3; hairpin

B1: TRIM25 CC-PRY/SPRY (aa 189-630) (domain or fragment, human, UniProt Q14258 189-630, looked up)
chain: ASLSQASADLEATLRHKLTVMYSQINGASRALDDVRNRQQDVRMTANRKVEQLQQEYTEMKALLDASETTSTRKIKEEEKRVNSKFDTIYQILLKKKSEIQTLKEEIEQSLTKRDEFEFLEKASKLRGISTKPVYIPEVELNHKLIKGIHQSTIDLKNELKQCIGRLQEPTPSSGDPGEHDPASTHKSTRPVKKVSKEEKKSKKPPPVPALPSKLPTFGAPEQLVDLKQAGLEAAAKATSSHPNSTSLKAKVLETFLAKSRPELLEYYIKVILDYNTAHNKVALSECYTVASVAEMPQNYRPHPQRFTYCSQVLGLHCYKKGIHYWEVELQKNNFCGVGICYGSMNRQGPESRLGRNSASWCVEWFNTKISAWHNNVEKTLPSTKATRVGVLLNCDHGFVIFFAVADKVHLMYKFRVDFTEALYPAFWVFSAGATLSICSPK
notes: TRIM25 coiled-coil (CC), L2 linker and PRY/SPRY domain, aa 189-630; also called TRIM25 189-630
- binding result [1]: binds

B2: pre-let-7 loop (ssRNA)
RNA: UAAAAGGAGAU
- Kd (TRIM25 PRY/SPRY [2]): 42000 ± 53000 nM
- Kd (TRIM25 CC-PRY/SPRY [3]): 4100 ± 1900 nM

B3: DENV-SL (structured_RNA)
RNA: GCAGGUCGGAUUAAGCCAUAGUACGGGAAAAACUAUGCUACCUG
- Kd (TRIM25 CC-PRY/SPRY [4]): 106 ± 35 nM
- Kd (TRIM25 CC-PRY/SPRY [5]): 15.2 ± 3 nM
- Kd [6]: 363 ± 84 nM
- Kd (TRIM25 CC-PRY/SPRY [7]): 1.63 ± 0.38 nM

B4: Lnczc3h7a-SL (structured_RNA)
RNA: UUUUAUCUGAGUUGGAGGUGAAG
- Kd (TRIM25 CC-PRY/SPRY [8]): 486 ± 77 nM
- binding result [9]: no binding
- Kd (TRIM25 CC-PRY/SPRY [10]): 8900 ± 4500 nM

B5: roX2 stem-loop (SL7 in text, SL6 in Table 2) (structured_RNA)
RNA: GUGUAAAAUGAUGGAAUAUAUACUAUCGUUUUACGC
- Kd (TRIM25 CC-PRY/SPRY [7]; label: 5' 32P): 18.1 ± 2.2 nM

B6: pre-let-7 stem (stem-fusion) (structured_RNA)
RNA: GUAUAGUUCAACUAUAC
- binding result (TRIM25 PRY/SPRY [11]): binds
